“Also recorded” adds a separate entry of the source.
Legend:
[1] = system: threshold for halothane anesthesia; experiment: Measurement of halothane MAC (tail clamp); type: in vivo, mouse; settings: mice; for halothane MAC: mean±S.E.M., vehicle 1.12±0.05; for effect on halothane MAC: intraperitoneal injection, dose series
Method: The purified fusion peptides at the indicated amounts were injected intraperitoneally into mice in 300 μl of phosphate-buffered saline and 10% glycerol. The mice were given Tat-PSD-95 PDZ2 or control peptide (mutated Tat-PSD-95 PDZ2 or PSD-95 PDZ2 without Tat) 4 h before MAC measurement and righting reflex testing. All the animals were assigned randomly to experimental groups consisting of 6-8 animals each. Western blot analysis was then used to verify the CNS delivery of these fusion peptides after intraperitoneal injection. Measurement of halothane MAC value was carried out as previously described with minor modification^20-22. Mice were placed in individual Plexiglas chambers 3 h after the injection of the fusion peptides. Each chamber was fitted with a rubber stopper at one end through which the mouse's tail and a rectal temperature probe protruded. Groups of four mice were given halothane in oxygen (4 l/min total gas flow). A gas sample was continuously drawn, and the anesthetic concentration was measured with an agent analyzer (Ohmeda 5250 RGM, Louisville, Colo.). A rectal temperature probe was inserted under light general anesthesia, and temperature was kept at 36˜38° C. with heat lamps throughout the experiment. Mice initially breathed approximately 1.5% halothane for 60 min. […] In each case, the tail was stimulated proximal to the previous test site. Only the middle third of the tail was used for tail-clamping. […] The anesthetic concentration was increased (or decreased) in steps of 0.1% until the positive response disappeared (or vice versa), with 10 min for equilibration allowed after each change of anesthetic concentration. MAC is defined as the concentration midway between the highest concentration that permitted movement in response to the stimulus and the lowest concentration that prevented movement.

[2] = In vivo CNS / spinal cord distribution of Tat fusion peptides after intraperitoneal injection (Western blot, immunohistochemistry); parameters: species or system mouse; settings: mice; for delivery into lumbar spinal cord, Western blot: 4 h after intraperitoneal injection; for delivery into cerebral cortex, hippocampus and lumbar spinal cord, Western blotting: 4 h after intraperitoneal injection (data not shown); for distribution in the spinal cord, immunohistochemical staining: after intraperitoneal injection; for dose dependence of delivery into the spinal cord, Western blot: intraperitoneal 2, 4, 8 mg/kg
Method: In Vivo Systemic Administration and Spinal Cord Distribution of Tat Fusion Peptides. Western blot analysis and immunohistochemistry were used to detect the spinal cord distribution of Tat fusion peptides after systemic administration. The purified fusion peptides at the indicated amounts were injected into mice intraperitoneally in 300 μl of PBS and 10% glycerol, as previously described (Cao, et al., 2002). The mice, assigned randomly to the experimental groups of 6-8, were given Tat-PSD-95 PDZ2 or control peptide (mutated Tat-PSD-95 PDZ2 or PSD-95 PDZ2 without Tat PTD) 4 h before sample collection. For Western blotting, lumbar spinal cord tissues were harvested, homogenized according to standard procedures, and centrifuged at 700×g for 15 min at 4° C. The extracted proteins were resolved by SDS-PAGE, electro-transferred to nitrocellulose membranes, and then immunoblotted with above-mentioned monoclonal anti-His antibody. For immunohistochemistry, sections from the spinal lumbar enlargement segments were fixed in 4% paraformaldehyde (in 0.1 M phosphate buffer, pH 7.4) for 10 min, and then incubated with the monoclonal anti-His antibody. Thereafter, the sections were rinsed with 0.01 M PBS, incubated with fluorescein isothiocyanate-conjugated anti-mouse IgG (1:80; Jackson ImmunoResearch Laboratories) for 1 h at 37° C., and rinsed again with PBS. The sections were imaged with confocal laser scanning microscopy at an excitation wavelength of 488 nm for fluorescein isothiocyanate.
The purified fusion peptides at the indicated amounts were injected intraperitoneally into mice in 300 μl of phosphate-buffered saline and 10% glycerol. The mice were given Tat-PSD-95 PDZ2 or control peptide (mutated Tat-PSD-95 PDZ2 or PSD-95 PDZ2 without Tat) 4 h before MAC measurement and righting reflex testing. All the animals were assigned randomly to experimental groups consisting of 6-8 animals each. Western blot analysis was then used to verify the CNS delivery of these fusion peptides after intraperitoneal injection.
Cerebral cortex, hippocampus, and lumbar spinal cord were harvested 4 h after intraperitoneal injection of the fusion peptides. Total proteins from these tissues were extracted. In brief, the tissues were removed and homogenized in homogenization buffer^18 (10 mM Tris-HCl, 5 mM MgCl2, 2 mM EGTA, 1 mM phenylmethylsulfonyl fluoride, […] leupeptin, 2 μM pepstatin A, and 320 mM sucrose, pH 7.4). The crude homogenates were centrifuged at 700×g for […] at 4° C. The pellets were rehomogenized and spun again at 700×g, and the supernatants were combined and diluted in resuspension buffer^18 (10 mM Tris-HCl, 5 mM MgCl2, 2 mM EGTA, 1 mM phenylmethylsulfonyl fluoride, 1 μM leupeptin, 2 μM pepstatin A, and 250 mM sucrose, pH 7.4). Next, the protein extracts were resolved by sodium dodecyl sulfate-polyacrylamide gel electrophoresis, electrotransferred to nitrocellulose membranes, and then immunoblotted with monoclonal anti-His antibody (Sigma, St. Louis, Mo.) diluted (1:1,000) in blocking solution containing 3% nonfat dry milk and 0.1% Tween-20 in Tris-HCl-buffered saline for 1 h at room temperature. After extensive washing, the membranes were incubated with horseradish peroxidase-conjugated anti-mouse immunoglobulin (Bio-Rad Laboratories, Hercules, Calif.) at a dilution of 1:3,000 for another 1 h. Specific proteins were detected by enhanced chemiluminescence (Amersham, Piscataway, N.J.). Tubulin served as a loading control and cerebral cortex was used for its detection.

| Molecule | halothane MAC ([1]; 2 mg/kg intraperitoneal) | halothane MAC ([1]; 4 mg/kg intraperitoneal) | effect on halothane MAC compared to the vehicle-treated group ([1]; 8 mg/kg intraperitoneal) | halothane MAC ([1]; 8 mg/kg intraperitoneal) | effect on halothane MAC [1] | delivery into lumbar spinal cord, Western blot [2] | delivery into cerebral cortex, hippocampus and lumbar spinal cord, Western blotting [2] | distribution in the spinal cord, immunohistochemical staining [2] | dose dependence of delivery into the spinal cord, Western blot [2] | dose dependence of delivery into the spinal cord, Western blot ([2]; listed as Tat-P SD-95 PDZ2) | difference in PTD-mediated spinal delivery versus Tat-PSD-95 PDZ2 ([2]; intraperitoneal injection, Western blot) | delivery into lumbar spinal cord, Western blot ([2]; listed as PSD-95 PDZ2 without Tat) |
| --- | --- | --- | --- | --- | --- | --- | --- | --- | --- | --- | --- | --- |
| Tat-PSD-95 PDZ2: His-tagged fusion peptide: HIV Tat minimal transduction domain (residues 47-57) fused to the second PDZ domain of PSD-95 (protein) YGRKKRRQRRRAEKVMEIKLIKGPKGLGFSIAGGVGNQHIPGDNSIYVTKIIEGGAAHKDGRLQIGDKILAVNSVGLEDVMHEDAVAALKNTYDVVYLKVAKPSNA | 1.11±0.05 | 0.99±0.05 | significantly reduced | 0.77±0.05 | dose-dependently reduced | delivered into lumbar spinal cord | delivered into cerebral cortex, hippocampus and lumbar spinal cord | distributed in the spinal cord | dose-dependently delivered; also recorded: dose-dependent | dose-dependent | – | – |
| mutated Tat-PSD-95 PDZ2: Control fusion peptide: Tat-PSD-95 PDZ2 with three sites critical for NMDAR/PSD-95 interaction mutated (K165T, L170R and H182L) (protein) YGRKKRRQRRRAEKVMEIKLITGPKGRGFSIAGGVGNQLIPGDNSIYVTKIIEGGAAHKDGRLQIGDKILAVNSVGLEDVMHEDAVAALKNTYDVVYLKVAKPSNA | – | – | no effect | – | no effect | delivered into lumbar spinal cord | delivered into cerebral cortex, hippocampus and lumbar spinal cord | – | – | – | No significant difference | – |
| PSD-95 PDZ2: Control peptide containing the same sequences as Tat-PSD-95 PDZ2 but without Tat PTD (protein) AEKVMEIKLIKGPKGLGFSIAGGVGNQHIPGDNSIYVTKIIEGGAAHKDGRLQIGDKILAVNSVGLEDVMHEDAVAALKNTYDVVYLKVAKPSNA | – | – | no effect | – | no effect | – | – | not detected | – | – | – | not detected |
